US20230192820A1 (published 2023)

B1: MAb362 (antibody, V domains shown)
VH: QVQLVESGGGVVQPGRSLRLSCAASGFSFSSYGMHWVRQAPGKGLEWVAVIWYDGSDKYYADSVKGRFTISRDNSKNTLYLQLNSLRAEDTAIYYCARERYFDWIFDFWGQGTLVTVSS
VL: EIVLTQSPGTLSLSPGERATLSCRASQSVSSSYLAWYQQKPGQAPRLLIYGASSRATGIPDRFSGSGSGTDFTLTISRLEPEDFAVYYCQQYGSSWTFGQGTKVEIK
B2: MAb362 IgA1 (monomeric) (antibody, V domains shown)
VH: B1 VH
VL: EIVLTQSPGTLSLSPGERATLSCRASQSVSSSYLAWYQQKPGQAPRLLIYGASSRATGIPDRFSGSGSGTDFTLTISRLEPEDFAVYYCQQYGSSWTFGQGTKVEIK
B3: MAb362 IgG1 (antibody, V domains shown)
VH: B1 VH
VL: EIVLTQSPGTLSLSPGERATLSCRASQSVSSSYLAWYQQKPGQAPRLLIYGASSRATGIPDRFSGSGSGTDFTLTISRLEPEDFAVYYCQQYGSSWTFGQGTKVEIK

Assays:
[1] = molecular target: SARS-CoV-2 S protein S1 subunit (amino acids 1-604), Myc/His tagged (SARS-CoV-2, UniProt P0DTC2 14-604)
[2] = molecular target: SARS-CoV-2 spike (S) protein on virus or pseudovirus particles (SARS-CoV-2, UniProt P0DTC2 14-1273); assay: cell-based or functional assay
[3] = molecular target: SARS-CoV-2 S protein RBD (amino acids 319-541) (SARS-CoV-2, UniProt P0DTC2 319-541)
[4] = molecular target: SARS-CoV S protein RBD (amino acids 270-510) (SARS-CoV (Urbani strain), UniProt P59594 270-510)

Binder | EC50 [1] [nM] | plaque reduction neutralization test (PRNT), EC50 [2] [µg/mL] | Kd [3] [nM] | Kd [4] [nM] | neutralization of SARS-CoV-2 pseudovirus, IC50 [2] [µg/mL]
B1 | ~40 | ~5 | – | – | –
B2 | – | – | 0.3 | 1.4 | 1.26
B3 | – | – | 13 | 1.3 | 58.7
